Measured values reported in IntAct's records for PubMed 25312756.

B1: Ras-related protein Rab-27A (Homo sapiens), P51159 (parent)
chain: MSDGDYDYLIKFLALGDSGVGKTSVLYQYTDGKFNSKFITTVGIDFREKRVVYRASGPDGATGRGQRIHLQLWDTAGQERFRSLTTAFFRDAMGFLLLFDLTNEQSFLNVRNWISQLQMHAYCENPDIVLCGNKSDLEDQRVVKEEEAIALAEKYGIPYFETSAANGTNISQAIEMLLDLIMKRMERCVDKSWIPEGVVRSNGHASTDQLSEEKEKGACGC
partner: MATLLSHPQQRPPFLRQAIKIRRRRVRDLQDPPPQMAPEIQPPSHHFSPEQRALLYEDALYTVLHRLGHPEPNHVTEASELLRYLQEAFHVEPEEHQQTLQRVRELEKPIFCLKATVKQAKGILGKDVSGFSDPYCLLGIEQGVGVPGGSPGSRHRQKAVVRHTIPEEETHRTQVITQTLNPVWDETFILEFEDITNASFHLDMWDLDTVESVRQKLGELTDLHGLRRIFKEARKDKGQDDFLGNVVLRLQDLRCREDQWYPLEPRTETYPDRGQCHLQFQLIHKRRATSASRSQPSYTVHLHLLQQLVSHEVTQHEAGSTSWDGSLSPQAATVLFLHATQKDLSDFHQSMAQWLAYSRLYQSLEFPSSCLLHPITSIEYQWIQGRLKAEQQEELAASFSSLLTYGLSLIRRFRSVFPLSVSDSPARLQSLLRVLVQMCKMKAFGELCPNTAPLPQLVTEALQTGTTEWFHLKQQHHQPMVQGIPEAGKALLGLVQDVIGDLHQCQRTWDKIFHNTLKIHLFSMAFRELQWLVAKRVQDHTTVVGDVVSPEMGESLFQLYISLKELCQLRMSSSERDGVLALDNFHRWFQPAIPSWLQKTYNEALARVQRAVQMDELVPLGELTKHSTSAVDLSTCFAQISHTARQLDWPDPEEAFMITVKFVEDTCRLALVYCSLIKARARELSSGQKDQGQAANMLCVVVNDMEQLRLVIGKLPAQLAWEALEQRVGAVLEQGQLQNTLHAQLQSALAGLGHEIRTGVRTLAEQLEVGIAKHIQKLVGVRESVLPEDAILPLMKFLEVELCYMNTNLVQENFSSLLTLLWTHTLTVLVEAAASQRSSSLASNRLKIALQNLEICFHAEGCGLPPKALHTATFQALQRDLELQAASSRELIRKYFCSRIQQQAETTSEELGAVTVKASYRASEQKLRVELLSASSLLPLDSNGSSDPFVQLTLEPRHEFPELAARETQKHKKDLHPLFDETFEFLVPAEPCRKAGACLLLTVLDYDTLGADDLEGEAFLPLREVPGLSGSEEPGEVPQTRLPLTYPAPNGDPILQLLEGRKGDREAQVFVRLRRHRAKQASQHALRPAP
B2: Ras-related protein Rab-27A (Homo sapiens), P51159 (parent)
chain: B1 chain
partner: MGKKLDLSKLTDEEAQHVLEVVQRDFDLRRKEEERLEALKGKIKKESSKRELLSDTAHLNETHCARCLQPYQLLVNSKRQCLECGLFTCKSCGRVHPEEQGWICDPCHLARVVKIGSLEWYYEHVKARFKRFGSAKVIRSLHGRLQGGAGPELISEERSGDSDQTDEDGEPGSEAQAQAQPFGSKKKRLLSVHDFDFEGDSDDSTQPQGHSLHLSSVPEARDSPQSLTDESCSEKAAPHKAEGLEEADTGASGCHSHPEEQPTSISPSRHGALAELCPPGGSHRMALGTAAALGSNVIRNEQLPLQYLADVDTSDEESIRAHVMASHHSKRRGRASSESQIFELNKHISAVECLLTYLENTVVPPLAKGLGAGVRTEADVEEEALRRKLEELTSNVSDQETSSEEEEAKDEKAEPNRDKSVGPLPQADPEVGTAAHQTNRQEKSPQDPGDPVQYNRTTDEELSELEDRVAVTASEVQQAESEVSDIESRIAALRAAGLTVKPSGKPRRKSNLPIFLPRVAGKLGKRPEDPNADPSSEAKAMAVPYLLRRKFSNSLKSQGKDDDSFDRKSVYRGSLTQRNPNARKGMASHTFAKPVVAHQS

Variants of: B1
Settings: with un13d_human UNC13D

| effect of a mutation on the interaction | Variant |
| --- | --- |
| decreasing interaction strength | S163R |
| decreasing interaction strength | A76V |
| disrupting interaction strength | Y159C |

Variants of: B2
Settings: with melph_human MLPH

| effect of a mutation on the interaction | Variant |
| --- | --- |
| decreasing interaction strength | S163R |
| with no effect | Y159C |
| with no effect | A76V |
